Measured values: the DeepSol protein solubility set

Assay: soluble on expression in E. coli; label from the status in PepcDB or PDB records

Row | Sequence | soluble on expression in E. coli
1 | MRYRPVIGLEIHVQLSTKTKAFCSCPADVFELPPNTAICPVCTGQPGALPVPNEEMIRFAVKTALALNCKIHKYSRFDRKNYFYPDLPKGYQISQYFYPIATEGFLEIDGDEGRKKVRIRRLHLEEDAGKLVHEGDSITRASYSLVDMNRCGVPLIEIVTEPDISSPREARVFMEKLRSIVRYLGVSTGDMEKGALRCDANISVVDTETGRQSNRVEVKNMNSFRFVERALEYEFERIVKAMERGEDVERETRGWDMATKITVSMRGKEEESDYRYFPEPDIPPVVLSDEYLEEVKKELPELPDEKAERFMREYGLPEYDAKVLTSSKELAEFFEECVKVVNRPKDLSNWIMTEVLRELNERNIEITESKLTPQHFADLFKLMDEGKISIKIAKEIFPEVFETGKMPSQIVEEKGLTQINDEKLIEELVKKAMEQNPKAVQDYKSGKKKAAGFFVGYVMRETKGKANPELTNRIIQKLLEGE | soluble
2 | MEILYIKGDATAPIGSGVKVITHICNDIGGWGKGFVLALSKKWKMPEEAYRQWYKSQEEFTLGAVQFVNVENKLYVANMIGQHGIYKDSKGLPPIRYDAVRQCLKEVALFTIAHKASVHMPRIGCGLAGGKWELMEQIIKEELITKEIAVTVYDLMAGDPLEHHHHHH | soluble
3 | MSLSENIAAYVGLDVHKETLAVAIAAPERLGEVRYYGTINNEAQAVRRLFQKLQGLYGNILSCYEAGPCGFGLYHQLTAMNIKCQVIAPSRIPKSPTDRIKNDHRDAISLARLLRAGELTPVWIPDLTHEAMRDLIRARAAAKRDSRVARQRILSMLLRTDKHYAGKHWTGKHRTWLANQSFSQPSQQIAFQHYCQSLEQIEDRILQLDQEISRLLPEWSLCNLVCQLQALKGVGQLIAITLVAELGDFSRFSNPKQLMAFLGLVPGEYSSGNSIRPRGITKVGNSELRRLLYEAAWSYRTPAKVGAWLIYYRPDSVTQYSKDIAWKAQQRLCSRYRSLTAKGKKSQVAITAVARELTGFMWDIALAAQSSFSQQKQNEGHHHHHH | soluble
4 | MSLALEVNMLTGGPTGTYIQIGRDIAKAASACGIEMTVHESAGSLENFLGVRQRPRTQFGIVQSDVLEYLKTFAADDPEVSRAIFGVRIAFPLYDEEVHLLARREIGSLKDLDGKRVSIGVENSGTFLTASLVLDLAEVAPGERRMMNQDDSLKALLAGDIDAFFYVAGAPAKIFASPEIDGERFHLVPVAEEVLRQVYKPTQIPAGSYPFQTGPVDAIAVKAVLMTYGYDPKRNAYHRESCKAVSDIAHVVSTHFPELQQSGHPKWKQVNLTDLPAGWDIGECVNAGLEPGYRLPCDPPEPAVAAPADASAESEANRAYRRQICAVVGEGHHHHHH | soluble
5 | MVGPARPQIVLFGSSIVQMSFGHGGWGAILSEVYARKADIILRGYYGWNSSRALEVVDQVFPKDAAVQPSLVIVYFGGNDSMAPHSSGLGPHVPLTEYVDNMKKIALHLQSLSDFTRIIFLSSPPVDEAKVRQNQSPYLSEVIRTNDLCKTYSDACVELCQELGLEVVDLFSTFQKADDWKTVCFTDGIHLSAQGSKIVAGEILRVVKEAEWHPSLHWKSMPTEFADDSPYDLVSADGKQTVNSSEWTYFWEEQWD | soluble
6 | MKQLAISFCIILPLACFWVLNAEDAKEAPEIREANSTVFRQKRQFGCPSNCYSSCSSSSQCQRYSVASVCVQGCCCPGNNNLDTACSGGPAVAACLGGLCGQGFFCSSNNYCCRCQSGNSTGPCVNQVCPTGFMCNTNNYCCPLGSGGVLGSCVNGVCPTGYTCGAGNLCYLSSGK | not soluble
7 | MGSDKIHHHHHHMRLHSPSMSELHAFVAAARLGSFTRAADTLCVTQGAISRAIARLEEHFGQPLIQRNAHRLTLTGAGQQLLDAVAGPLAAIEHASAALRAGDRSHHLTLSAVPTLASVWLVPRLPDFHRRHPDIRLDFVPYRRDEDFSGAAPDAALLAGEPGKWPGLQVDYVVGREMVPVCHPDRARQRHAAGRWREPAELMDEPLLYHTTAPANWANWLQAAGVPNAAPKLSSGFDQVSILVQAVRADMGIAVLQRCLLHDELAAGRVVAPFDLPIRLQRGYFLCSPRERRDHHALRCFREWLLETAAQDSGT | not soluble
8 | PLGSEEEEEDAGLVAEAEAVAAGWMLDFLCLSLCRAFRDGRSEDFRRTRNSAEAIIHGLSSLTACQLRTIYICQFLTRIAAGKTLDAQFENDERITPLESALMIWGSIEKEHDKLHEEIQNLIKIQAIAVCMENGNFKEAEEVFERIFGDPNSHMPFKSKLLMIISQKDTFHSFFQHFSYNHMMEKIKSYVNYVLSEKSSTFLMKAAAKVVESKR | soluble
9 | KRKEMISARLGDGLSYLYMASATLKKYEDEGRQQGDLNFVHYAVQYCLYNAAKSLNEAYANFPVKYVGGVLKGLLFPLGNHFDKPSDELSVSIAEAMMTPGVQRDRLTHLCYIGKSENDSVGLMENAFLAMYDVKPLERKLMKAAKDGKVARKGLLPDRLQQALDAGVLTEQEVEKITAADQLRYKAIQVDHFSHDFSEVRTDSPKKSHLNPAA | not soluble
10 | MGSDKIHHHHHHMTILSDVKALGQQIWLDNLSRSLVQSGELAQMLKQGVCGVTSNPAIFQKAFAGDALYADEVAALKRQNLSPKQRYETMAVADVRAACDVCLAEHESTGGKTGFVSLEVSPELAKDAQGTVEEARRLHAAIARKNAMIKVPATDAGIDALETLVSDGISVNLTLLFSRAQTLKAYAAYARGIAKRLAAGQSVAHIQVVASFFISRVDSALDATLPDRLKGKTAIALAKAAYQDWEQYFTAPEFAALEAQGANRVQLLWASTGVKNPAYPDTLYVDSLIGVHTVNTVPDATLKAFIDHGTAKATLTESADEARARLAEIAALGIDVETLAARLQEDGLKQFEEAFEKLLAPLV | not soluble
11 | MKKIGIIGAGGIARAHATALSTIKNAELVGVYDINQQNAESFVKTFGGKSFENVDELIDASEGLIVASPNFCHKEHALQALGKHKHVLCEKPMAISLEEASIMKDTAERLSVRASMGFNYRYLSYVNILKSLIINNELGNILSIKVHFKKNSALRRKKFTWRDDANSKKTSGSLGDLGIHLIDMVWYLFESDFITESVRAKMNTNVKTKEDKQVLVDDYAEIYGQLRNKVFVNIITSKCSVPEDCGFSIEVVGHKKEFKYHTGNPHVYKLIDGLNVVDCPVPQSLLNDPPNEFYGWADSFRSELINWIASTQNDWVEIPSFSDGFRSQEVLEMFFEKDSNSQPMSVSAVNLEHHHHHH | not soluble
12 | MGSDKIHHHHHHVPKNKDSKNNSIPRRRFGRTEIQIPVLSLGGMRFQQSWKDLDPKEINNQQQEILQKTISYAAQKGMHHIETARHYGTSERQIGWAFDQIDDPKRILQTKVPPNNDPSIFEQELELSMSRLGSKKIDLLAIHGINLPEHLDMTIRPNGCLQIVRRWQKDGLIGHVGFSTHANVDLIIKTIETGFFDYVNLHWYFIRQENEKALQAADANDLGVFIISPTDKGGHLHTPSLKLLDLCSPLHPIEFNDLFCLRDKRIHTLSVGASSPEDLDIHLSAISKMDTMHGVINTIEKRLINASYKSLGESWLTTWNIGLPRWDQTPGEINIPTLLWLNNLLEAWDMESFVKDRYGLLGRGGHWFPGANADCLDCEVSEDDLKKVLINSPWSSEIPSVLRKLKDRLGGERRDRLWGI | not soluble
13 | MGSDKIHHHHHHCKDNDDATGDFDPNKPVVISEFSPKEGGLGTRMLLYGENFGSDISKIKVTIGGQDSKVVGAKGKSLYCVVPAKAYDGDIKLSILNDEGEEIANTEANEKFVYQKKMLVTTFLGTMYDGNTKYDLKDGPFDDCGGFGGAVWLSFDPKNHNHLYLVGEQHPTRLIDFEKEYVSTVYSGLSKVRTICWTHEADSMIITNDQNNNDRPNNYILTRESGFKVITELTKGQNCNGAETHPINGELYFNSWNAGQVFRYDFTTQETTPLFTIQDSGWEFHIQFHPSGNYAYIVVVNQHYILRSDYDWKTKRLTTPYIVCGQQGAKDWVDGVGKKARMHAPRQGTFVKNPAYKGSSDEYDFYFCDRENHCIRILTPQGRVTTFAGRGSNGTSGYNDGDLRQEARFNHPEGIVYDEERECFFIGDRENRRIRKIGYEE | not soluble
14 | MSLMGYKNNRVGYQKELLTSRAVIKKDNYAIIPHDGLVQNAVPGFENVDISILGSPKLGATFVDYIATFHKNGQQTTGFGGDGIQTLVYVIDGRLRVSDGQETHELEAGGYAYFTPEMKMYLANAQEADTEVFLYKKRYQPLAGHQPYKVVGSIHDQQPEEYEGMTDVLLWSLLPKEFDFDMNMHILSFEPGASHAYIETHVQEHGAYLISGQGMYNLDNEWYPVEKGDYIFMSAYVPQAAYAVGREEPLMYVYSKDANREPELEGGSHHHHHH | soluble
15 | GSPGILMASQGTKRSYEQMETGGERQNATEIRASVGRMVGGIGRFYIQMCTELKLSDQEGRLIQNSITIERMVLSAFDERRNRYLEEHPSAGKDPKKTGGPIYRRRDGKWVRELILYDKEEIRRIWRQANNGEDATAGLTHMMIWHSNLNDATYQRTRALVRTGMDPRMCSLMQGSTLPRRSGAAGAAIKGVGTMVMELIRMIKRGINDRNFWRGENGRRTRIAYERMCNILKGKFQTAAQKAMMDQVRESRNPGNAEIEDLIFLARSALILRGSIAHKSCLPACVYGLAVASGYDFEREGYSLVGIDPFRLLQNSQVFSLIRPNENPAHKSQLVWMACHSAAFEDLRVSSFIRGTRVIPRGQLSTRGVQIASNENVEAMDSSTLELRSRYWAIRTRSGGNTNQQRASAGQISVQPTFSVQRNLPFERATIMAAFKGNTEGRTSDMRTEIIRMMESARPEDVSFQGRGVFELSDEKATNPIVPSFDMSNEGSYFFGDNAEEYDN | soluble
16 | GDFIVVQSTTSTQNSGLLDHILPAFEAETGIEVRVVAVGTGQAIRNAANGDGDVLLVHAKAAEEKFVAEGWGVERFDVMYNDFVLVGPASDPAGVRGGSDIVAALSAIAGAEAPFASRGDDSGTHKAELRHWASAGIDVSAASGGWYRETGSGMGATLNLAAGMGAYALSDRATWIAFGNKGDLVVAVEGDARLFNQYGVILVNPAKHPGVKAEAGQRFIDWLTGDEGQAAIAGYTL | not soluble
17 | MGSDKIHHHHHHMRVGIIGGGFGLAVQAPIINTHPKMNVSAISTMIRHQVPKNLSTADDSPVHYTDWTKMLDLEELDLVFVSSLPIYHFEMVKYALNKGIHVVCEKPFTMNSVESEELLRLSSDTNTKVFIDFEWRYHPARQKVKELISEVGDILHFEYHISASQYQKLQTNKRGWMGEKQKFGGMLGALGTHMVDCLRWLIQDEIITINGFIHTHVPEGPEELRDSDDAFFIHGKIEGNCTFSIQLISGIHHGFGSNLKVFGSLGTINLIDDKTLFFGKASESLEEIKIETYTQTIPPLSSEAKAYYPAFYPFLDKVYENIIFNKSDKDLPTIVDGHENQIIIDNVLSN | not soluble
18 | MGSDKIHHHHHHMLAERLVSDYDVEVLTTCVRDVATGENIYPEGEEEWNGVVIRRFRTNPVQREKERYFAKKAKPARKLRQFLFKLGILKYLSYLIPVWSYKHDDEVQAMKSDKFYSSALNDYIRDHIDEYKAFIAMSSDYVTFYYTALYAGRKTIAIPTMHNMGISFRSVLTSAFSKIAYVGFNTGEEQRLAENILGKALGAHGILSVGIEESLSADWAMTKEKFQLPEKYLLYIGRITPKKIHRLLTYFVNYKKKYSDSTLRLVLVGGLAMERFEHPDVIYTGFVSDEEKMSILQHADIVVNPSRYESLSLILLEAMSQKRPMLVNGHCKVLKEHCLKSDFASFYYMNNRGFNQALRRIEQSEDLREEMGEKGVFYVKSNYNWTLIMGRLKQAIKSI | not soluble
19 | MGSDKIHHHHHHMNHLVEVQHMERMNRTNHIQKLDKERYLNLKTGEIGEFKQGEVRSDSLNSLRQTFKKLRYLINTNYVGAGNELFITLTYKENMTDVKRLYSDFKKFMLKFRYKYEKQYGSIDYMTVVEPQERGAWHHHLLVRFNDMTGSKMYIPNNDVAALWGHGFTNMHSLNGVDNIGAYLSAYLADVELTTDNVFLAFDDNVEVVSKVVDGQEKKFIKGGRLHLYPSGMNLYRKSKGIKMPVREEMRYGDIKKVVGSEKPHYVKTLVVEQDDFKNTITYEQYNTKR | not soluble
20 | ASIPSSASVQLDSYNYDGSTFSGKIYVKNIAYSKKVTVVYADGSDNWNNNGNIIAASFSGPISGSNYEYWTFSASVKGIKEFYIKYEVSGKTYYDNNNSANYQVST | soluble
